pKd: −log10 of the molar value.
Tests used:
[1] = target: T1, 6xHis-DnaA (Mtb) (Mycobacterium tuberculosis) (UniProt P9WNW3); assay: EMSA
T1 sequence: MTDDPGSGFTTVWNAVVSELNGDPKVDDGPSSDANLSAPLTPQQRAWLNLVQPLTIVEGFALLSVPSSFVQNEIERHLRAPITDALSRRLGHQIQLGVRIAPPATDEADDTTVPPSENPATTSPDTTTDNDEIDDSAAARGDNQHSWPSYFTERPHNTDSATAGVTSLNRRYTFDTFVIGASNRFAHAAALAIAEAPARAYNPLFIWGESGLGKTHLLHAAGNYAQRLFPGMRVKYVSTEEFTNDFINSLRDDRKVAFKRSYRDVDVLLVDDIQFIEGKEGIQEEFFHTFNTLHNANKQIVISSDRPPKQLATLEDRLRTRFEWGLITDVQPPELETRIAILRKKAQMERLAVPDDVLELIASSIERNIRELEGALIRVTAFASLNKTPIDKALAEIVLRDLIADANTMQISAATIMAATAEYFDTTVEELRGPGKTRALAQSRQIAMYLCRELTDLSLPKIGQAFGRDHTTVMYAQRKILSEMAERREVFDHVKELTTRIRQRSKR

[2] = system: 6xHis-DnaA (Mtb) (Mycobacterium tuberculosis); assay: EMSA

Substance	binding [1]	pKd [2]
CCCTACACGACGCTCTTCCGACCCTCTCACCACTGCAGACAAAGTTATCCACAGACGCTATCAACAGTGGGGATGAATCACATGCGTGTGATTGAGTGACCAAAAGGTTGCTGGCACAGTAACGACCCGACCAGAATATGAATTCATTCTATCGGCGGCG (double strand) [Rv0010c-Rv0011c intergenic fragment]	binds	–
oriC fragment	–	7.15

From publication PMC7738170
